Reference: US12344663B2, “Anti-C3 antibodies and antigen-binding fragments thereof and their uses for treating eye or ocular diseases” (CDR-Life AG, priority 2021, dated 2025)

B1: Clone I: humanized anti-C3 scFv, VH SEQ ID NO: 20, VL SEQ ID NO: 21; scFv SEQ ID NO: 26 or 27 (antibody, V domains shown)
VH: QVQLVESGGGSVQPGRSLRLSCAASGFTFSNYAMNWVRQAPGKGLEWVAVISYDGSNKYYADSVKGRFTISRDNSKNTLYLQMNSLRAEDTASYYCARAVGYHHARLDPWGCGTSVTVSS
VL: QLVLTQSPSASASLGASVKLTCTLSSAHKTYTIDWYQQQPEKCPRYLMQLKSDGSYTKGSGIPDRFSGSSSGAERYLTISSLQSEDEADYYCGTEGVGGYVFGGGTKLTVLG
modifications: VH; VL
B2: Clone II: humanized anti-C3 scFv, VH SEQ ID NO: 22, VL SEQ ID NO: 23; scFv SEQ ID NO: 28 or 29 (antibody, V domains shown)
VH: QVQLVESGGGSVQPGRSLRLSCAASGFTFSNYAMNWVRQAPGKGLEWVAIINVGGGTNYADSVKGRFTISRDNSKNTLYLQMNSLRAEDTASYYCARAVGYHHARLDPWGCGTSVTVSS
VL: B1 VL
modifications: VH; VL

How the values were obtained:
[1] = Viscosity at high concentrations, cone-plate-rheometer; type: physicochemical; details: 20° C., shear-rate 1000 s^−1; for Viscosity [mPa * s] Fully formulated at 150 g/L: 10 mM His pH 5.5, 275 mM sucrose, 0.02% w/v Polysorbate20; for Viscosity [mPa * s] Minimal buffer at 185 g/L: 10 mM His pH 5.5
Procedure: Viscosity measurements are performed with the samples prepared for the storage stability study. In addition to the fully formulated samples (10 mM His pH 5.5, 275 mM sucrose, 0.02% w/v Polysorbate20), viscosity of each candidate is also measured in a minimal formulation (10 mM histidine pH 5.5). This is performed to evaluate the drug substance processability (e.g., filtration, pumping, diafiltration, etc.) of the candidates up to 125% of the final drug product concentration of 150 mg/ml.
Viscosity is measured at 20° C. at a shear-rate of 1000 s^−1 using a cone-plate-rheometer. Briefly, a stepwise increase of the shear rate up to 1,000 s^−1 is done collecting 100 data points, followed by a further increase of the shear rate up to 2000 s^−1, collecting another 10 data points. Finally, a stepwise decrease of the shear rate down to starting rate is done. Good drug product handling properties for filling and syringeability have been observed for all candidates

[2] = In vitro BrM permeation assay, Ussing chamber; type: in vitro ADME, porcine; details: 0.1 mg/ml, up to 72 h, in words
Procedure: Porcine Bruch's membrane samples are used for this measurement. Porcine eyes are collected from the slaughterhouse) no more than 6 hours after the animals were sacrificed and stored at 4° C. until use (on same day).
Preparation of enriched Bruch's Membrane (BrM): The eyes are placed into a disposable petri-dish and any residual tissue surrounding the eyeball is removed. The eyeball is incised next to the iris with a scalpel and the front part of the eye as well as lens, vitreous and retinal tissue are removed from the eyecup. […]
Sampling and membrane integrity analysis: For sampling at different timepoints (4 h, 24 h, 48 h and 72 h) the solution in the single compartments is mixed by carefully pipetting up and down and 90 μl were transferred separately from each sample and diffusate chamber to collection tubes. […] Accumulation of blue particles in the second compartment is observed and camera pictures are recorded to control for overall membrane integrity.
Sample analysis: 15 μl of each solution from the sample and diffusate chambers are effectively loaded on 2 precast polyacrylamide gels (NuPAGE Bis-Tris gels) together with a similar amount of stored mastermix as loading control. The first gel is analyzed by standard SDS-PAGE and Coomassie-based staining methods for protein detection (anti-C3 scFv). […]
Evaluation: Pictures of the SDS-gels are analyzed using ImageJ2 software (Fiji). […]

[3] = system: Classical Pathway (CP); test: Hemolytic assay, antibody-sensitized sheep erythrocytes in human serum; type: cell-based; details: 1% human serum, read-out: IC50 (nM) Classical Pathway Hemolysis
Procedure: Anti-C3 antibody fragments are evaluated for their ability to inhibit hemolysis of antibody-sensitized sheep erythrocytes mediated by Classical Pathway (CP) or Alternative Pathway (AP) activation in human serum. For this, sheep erythrocytes are coated with hemolysin (rabbit anti-sheep antibodies) on the surface to activate the complement system in human serum resulting in C3 activation and subsequent formation of the Membrane Attack Complex (MAC). The MAC assembles on the membrane of sheep erythrocytes leading to cell lysis. The level of hemoglobin released from lysed erythrocytes is measured at OD 414 nm and is proportional to the complement activity present in the serum sample. For determining the ability of anti-C3 molecules to inhibit CP activity, human serum was diluted in GVB++ buffer (Complement technology) for optimal activation of the Classical Pathway (requires calcium and magnesium ions). Serial dilutions of anti-C3 test samples are prepared from this solution with a final concentration of 1% human serum for each datapoint (prior to addition to erythrocytes). The samples are incubated with antibody-sensitized sheep erythrocytes for 1 hour at 37° C. and released hemoglobin is measured in the supernatant after a centrifugation step.

[4] = system: Alternative Pathway; test: WEISLAB Complement system Screen, alternative pathway MAC (C5b-C9) formation; type: biochemical, human; details: human serum; read-out: IC50 (nM) Alternative Pathway MAC deposition
Procedure: To identify antibodies that block all 3 complement pathways, antibodies are screened using an enzyme immunoassay for the qualitative determination of functional classical, lectin and alternative complement pathways in human serum using the WEISLAB® Complement system Screen (Svar Life Science AB, Malmö, Sweden).
To monitor inhibition of the complement system in human serum, the scFv of the invention or the comparator molecules are tested using an enzyme immunoassay for the qualitative determination of functional classical, lectin and alternative complement pathways in human serum using the WEISLAB® Complement system Screen (Svar Life Science AB, Malmö, Sweden), following the supplier's instructions. The amount of C5b-C9 neoantigen generated is proportional to the functional activity of complement pathways. The scFv of the invention and the comparator molecules are tested in a concentration response curve and the IC50 for the inhibition is calculated using the GraphPadPrism software and a non-linear, 4 parameters curve regression.

[5] = system: Alternative Pathway (AP); test: Hemolytic assay, rabbit erythrocytes in human serum; type: cell-based; details: MgEGTA, read-out: IC50 (nM) Alternative Pathway Hemolysis
From the text: The Alternative Pathway (AP) in human serum samples is spontaneously activated by rabbit erythrocytes. Since AP activation requires higher concentrations of serum, the Classical Pathway needs to be blocked with MgEGTA to chelate Ca2+ ions (AP only requires Mg2+ ions). AP activation results in C3 activation and subsequent formation of the Membrane Attack Complex (MAC). The MAC assembles on the membrane of rabbit erythrocytes leading to cell lysis. The level of hemoglobin released from lysed erythrocytes is measured at OD 414 nm and is proportional to the complement activity present in the serum sample.

| IC50 [4] [nM] | Molecule | Viscosity [mPa * s] Fully formulated at 150 g/L [1] [mPa * s] | Viscosity [mPa * s] Minimal buffer at 185 g/L [1] [mPa * s] | Diffusion/penetration through porcine Bruch's membrane [2] | IC50 [3] [nM] | IC50 [5] [nM] |
| --- | --- | --- | --- | --- | --- | --- |
| 344 | B1 | 3.9 | 5.4 | superior diffusion ability | 74 | 705 |
| 360 | B2 | 3.9 | 4.5 |  | 69 | 668 |
